According to patent publication US6555734B2, “Genetic sequences encoding substrate-specific dihydroflavonol 4-reductase and uses therefor” (Korea Kumho Petrochemical Co., Ltd., priority 2000, dated 2003):
“Also recorded” adds a separate entry of the source.

Experiments:
[1] = from literature; cited from earlier work
[2] = test system: WV Petunia line (dfr^−/−, F3′5′H^+/+); assay: Flower colour of WV Petunia line crossed with DFR transformants; format: in vivo
Excerpt: (§1) In accordance with the present invention, a DHK-specific DFR was developed by replacing asparagine at 134th amino acid residue of Gerbera DFR to leucine. […] Since the W80 Petunia line we transformed accumulates mainly DHK with small amount of DHQ and DHM, it was not clear if the N134L mutant DFR completely lost the capability of reducing DHQ and DHM. To investigate if the N134L mutant DFR produces only pelargonidin in the presence of fully active flavonoid-3′-hydroxylase (F3′H) or flavonoid-3′,5′-hydroxylase (F3′5′H), we crossed our N134L transformant with Petunia lines that are either dfr^−/−/F3′H^+/+ (WR line) or dfr^−/−/F3′5′H^+/+ (WV line). […] To determine the pigments produced in these crossed lines, we performed TLC analysis.
(§2) Gerbera DFR genes containing one amino acid point mutation were made in a similar manner as the chimeric genes. The 5′ region was synthesized using a primer having the Gerbera DFR starting methionine and a primer containing a single codon change. The 3′ region was made with a complementary primer with the single codon change and a primer having the stop codon of Gerbera DFR. The full length mutant sequence was assembled like the chimeric genes above. Each point mutant was cloned into a vector having the 35S CaMV promoter and NOS terminator. […] Mutations in other loci were not determined in these two Petunia lines.

[3] = test system: white flowered Petunia mutant (W80); format: in vivo; settings: W80 line (lacks DFR activity, accumulates primarily DHK); DFR gene under 35S CaMV promoter
[4] = test system: WV Petunia line (dfr^−/−, F3′5′H^+/+); assay: TLC analysis of pigments in WV crossed lines; format: in vivo
Excerpt: as §1
(§3) Gerbera DFR genes containing one amino acid point mutation were made in a similar manner as the chimeric genes. The 5′ region was synthesized using a primer having the Gerbera DFR starting methionine and a primer containing a single codon change. The 3′ region was made with a complementary primer with the single codon change and a primer having the stop codon of Gerbera DFR. The full length mutant sequence was assembled like the chimeric genes above. Each point mutant was cloned into a vector having the 35S CaMV promoter and NOS terminator. The mutagenized region of each mutant DFR was sequenced to ensure the correct residue was changed. Point mutants were then transformed into the W80 Petunia line. The transformants expressing the DFR genes were crossed with WR Petunia line (dfr^−/−, F3′H^+/+) and WV Petunia line (dfr^−/−, F3′5′H^+/+) to determine the substrate specificity of the mutated DFR. Mutations in other loci were not determined in these two Petunia lines.
(§4) Anthocyanidins were separated on cellulose TLC plates as described (Johnson, et al. Plant J. 19:81-85 (1999)). Corollas were sometimes stored at 4° C. for extended periods of time in methanol-0.5% HCl solution. Before adding iso-amylalcohol, the flower extracts were quantified at 530 nm to ensure uniform loading on the TLC plate. […]

[5] = test system: WR Petunia line (dfr^−/−, F3′H^+/+); assay: TLC analysis of pigments in WR crossed lines; format: in vivo
Excerpt: as §1, §3, §4

[6] = test system: white flowered Petunia mutant (W80); assay: TLC analysis of anthocyanidins produced in transgenic W80 Petunia flowers; format: in vivo; settings: W80 line, anthocyanidins on cellulose TLC against pelargonidin, cyanidin, delphinidin standards
Excerpt: In accordance with the present invention, the substrate specificity determining region was identified by determining the abilities of three chimeric DFRs to catalyze the reduction of DHK in the transgenic Petunia lines. In order to identify the region of DFR that determines its substrate specificity, we constructed chimeric DFR genes using cDNA sequences of Petunia (SEQ ID NO: 35) and Gerbera (SEQ ID NO; 1). […] We built three different chimeric genes using regions of high homology as common PCR primer sites (FIG. 1A). The chimeric genes were transformed into a white flowered Petunia mutant (W80) that lacks DFR activity and accumulates primarily DHK but with appreciable amounts of dihydroquercetin (DHQ) and dihydromyricetin (DHM) (Huits et at, 1994). […] The hue of Chimera 1 flowers is very similar to the inbred Petunia mutant RLO1, which has functional DFR activity and accumulates DHK. […] The identified region (approx. 40 amino acids) is highly variable in DFRs from different plant species. By excluding the completely conserved amino acid sequences at the borders, the identified region is narrowed down to 26 amino acids. Hereinafter, this region is referred as substrate specificity determining region.
Anthocyanidins were separated on cellulose TLC plates as described (Johnson, et al. Plant J. 19:81-85 (1999)). Corollas were sometimes stored at 4° C. for extended periods of time in methanol-0.5% HCl solution. Before adding iso-amylalcohol, the flower extracts were quantified at 530 nm to ensure uniform loading on the TLC plate. Anthocyanin standards were purchased from Apin Chemicals Ltd. (Oxfordshire, England).

[7] = test system: WR Petunia line (dfr^−/−, F3′H^+/+); assay: Flower colour of WR Petunia line crossed with DFR transformants; format: in vivo
Excerpt: as §1, §2

[8] = Substrate specificity of DFR (reduction of dihydroflavonols); settings: concluded from flower colour and TLC data of WR and WV crosses
Excerpt: as §1, §2

Molecule | substrate use among DHK, DHQ and DHM [1] | flower color of crossed line [2] | flower color of transgenic Petunia [3] | pigments accumulated in crossed line (TLC) ([4]; listed as DFR^WT) | pigments accumulated in crossed line (TLC) ([4]; listed as wild type DFR) | pigments accumulated in crossed line (TLC) ([5]; listed as DFR^WT) | pigments accumulated in crossed line (TLC) ([5]; listed as wild type DFR) | pigments produced in transgenic Petunia flowers (TLC) ([6]; listed as native Gerbera DFR) | pigments produced in transgenic Petunia flowers (TLC) ([6]; listed as wild type Gebera DFR) | flower color of crossed line [7] | pigments accumulated in crossed line (TLC) ([4]; listed as DFR^N134L) | pigments accumulated in crossed line (TLC) ([5]; listed as DFR^N134L) | pigments produced in transgenic Petunia flowers (TLC) [6] | pigments produced in transgenic Petunia flowers (TLC) ([6]; listed as DHK-specific DFR) | substrate preference among DHK, DHQ and DHM [8]
maize DFR: maize DFR introduced into a Petunia mutant line (Meyer et al.) (protein, UniProt P51108 1-357, looked up) Dihydroflavonol 4-reductase: MERGAGASEKGTVLVTGASGFVGSWLVMKLLQAGYTVRATVRDPANVGKTKPLMDLPGATERLSIWKADLAEEGSFHDAIRGCTGVFHVATPMDFLSKDPENEVIKPTVEGMISIMRACKEAGTVRRIVFTSSAGTVNLEERQRPVYDEESWTDVDFCRRVKMTGWMYFVSKTLAEKAALAYAAEHGLDLVTIIPTLVVGPFISASMPPSLITALALITGNAPHYSILKQVQLIHLDDLCDAEIFLFENPAAAGRYVCSSHDVTIHGLAAMLRDRYPEYDVPQRFPGIQDDLQPVRFSSKKLQDLGFTFRYKTLEDMFDAAIRTCQEKGLIPLATAAGGDGFASVRAPGETEATIGA | can convert all three dihydroflavonols to their leucocyanidins |  |  |  |  |  |  |  |  |  |  |  |  |  | 
Gerbera DFR: wild type Gerbera dihydroflavonol 4-reductase (SEQ ID NO: 2) (protein) MEEDSPATVCVTGAAGFIGSWLVMRLLERGYVVHATVRDPGDLKKVKHLLELPKAQTNLKLWKADLTQEGSFDEAIQGCHGVFHLATPMDFESKDPENEIIKPTIEGVLSIIRSCVKAKTVKKLVFTSSAGTVNGQEKQLHVYDESHWSDLDFIYSKKMTAWMYFVSKTLAEKAAWDATKGNNISFISIIPTLVVGPFITSTFPPSLVTALSLITGNEAHYSIIKQGQYVHLDDLCECHIYLYENPKAKGRYICSSHDATIHQLAKIIKDKWPEYYIPTKFPGIDEELPIVSFSSKKLIDTGFEFKYNLEDMFKGAIDTCREKGLLPYSTIKNHINGNHVNGVHHYIKNNDDDHEKGLLCCSKEGQ | able to catalyze dihydrokaempferol (DHK) | violet colored flowers | orange/bric-red color | accumulated mainly delphinidin | delphinidin | mainly accumulated cyanidin | cyanidin | production of appreciable amounts of cyanidin and delphinidin in addition to pelargonidin | accumulated significant amount of cyanidin and delphinidin in addition to perlargonidin | red colored flowers |  |  |  |  | 
N134L: DFR that has leucine instead of aspargine at the 134th position of Gerbera DFR (SEQ ID NO 4) (protein) MEEDSPATVCVTGAAGFIGSWLVMRLLERGYVVHATVRDPGDLKKVKHLLELPKAQTNLKLWKADLTQEGSFDEAIQGCHGVFHLATPMDFESKDPENEIIKPTIEGVLSIIRSCVKAKTVKKLVFTSSAGTVLGQEKQLHVYDESHWSDLDFIYSKKMTAWMYFVSKTLAEKAAWDATKGNNISFISIIPTLVVGPFITSTFPPSLVTALSLITGNEAHYSIIKQGQYVHLDDLCECHIYLYENPKAKGRYICSSHDATIHQLAKIIKDKWPEYYIPTKFPGIDEELPIVSFSSKKLIDTGFEFKYNLEDMFKGAIDTCREKGLLPYSTIKNHINGNHVNGVHHYIKNNDDDHEKGLLCCSKEGQ |  | white flowers | slightly different colored flowers |  |  |  |  |  |  | orange colored flowers | did not accumulated any pigment other than background level of delphinidin; also recorded: no appreciable amounts of anthocyanidins accumulated other than a background level of delphinidin | accumulated pelargonidin and cyanidin; also recorded: accumulated a large amount of pelargonidin | accumulated mostly pelargonidin | production of only pelargonidin | preferentially utilizes DHK as a substrate over DHQ and cannot reduce DHM
